According to patent US20110065632A1, “PHARMACEUTICAL COMPOSITIONS OF SOMATOSTATIN-DOPAMINE CONJUGATES” (priority 2008, published 2011):
In brackets after ≈: the same amount, converted by molar mass.

Experiments:
hUTII = biological target: T1, hUTII (Homo sapiens, UniProt Q9UKP6); experiment: hUTII inhibition constant; assay type: binding; conditions: read-out: hUTII Ki
T1 sequence (Q9UKP6 1-389): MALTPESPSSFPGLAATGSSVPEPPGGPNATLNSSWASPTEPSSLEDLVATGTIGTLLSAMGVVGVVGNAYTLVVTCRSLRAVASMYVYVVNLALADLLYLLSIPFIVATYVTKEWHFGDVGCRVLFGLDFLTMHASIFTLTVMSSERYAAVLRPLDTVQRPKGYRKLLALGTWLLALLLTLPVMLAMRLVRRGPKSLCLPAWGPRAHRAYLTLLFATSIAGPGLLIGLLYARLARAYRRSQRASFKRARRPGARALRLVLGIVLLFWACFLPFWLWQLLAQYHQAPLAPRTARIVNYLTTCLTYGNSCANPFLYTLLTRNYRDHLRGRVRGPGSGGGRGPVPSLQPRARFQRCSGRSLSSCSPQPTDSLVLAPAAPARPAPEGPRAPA
Experimental: Using the discussed assays, the inhibition constants (Ki) for the five human somatostatin receptors (hSSTR1-hSSTR5) and the dopamine-2 receptor (hUTII and hDA2) were measured for the exemplified somatostatin-dopamine conjugates, as follows: […]

[1] = Solubility of Example 1 at various concentrations of DMA and PEG400; assay type: physicochemical
Experimental: A compound that may advantageously be used to practice the invention can be tested to determine its solubility at different DMA and PEG400 concentrations using the following procedure.
To about 1 mg of Example 1 were added increasing volumes of the above solvents or buffers. When a soluble volume was reached, the concentration was calculated by weight/volume. When Example 1 was not soluble, the solution was centrifuged and the supernatant was analyzed by HPLC to determine the concentrations. The determined concentration is treated as the solubility of Example 1 in that solvent or buffer.
The solution pHs were checked. They were about pH 7. No further adjustment was done.

sst2-D2 = biological target: T2, sst2-D2 (Homo sapiens, UniProt P14416+P30874); experiment: cAMP Responsive Element-Luciferase reporter gene assay, sst2-D2 co-transfected HEK-293 cells; assay type: cell-based; conditions: read-out: IC50 value of cAMP inhibition
T2 construct: expressed in transfected cells; host or cells: HEK-293, transient co-transfection
T2 sequence (P30874 whole entry): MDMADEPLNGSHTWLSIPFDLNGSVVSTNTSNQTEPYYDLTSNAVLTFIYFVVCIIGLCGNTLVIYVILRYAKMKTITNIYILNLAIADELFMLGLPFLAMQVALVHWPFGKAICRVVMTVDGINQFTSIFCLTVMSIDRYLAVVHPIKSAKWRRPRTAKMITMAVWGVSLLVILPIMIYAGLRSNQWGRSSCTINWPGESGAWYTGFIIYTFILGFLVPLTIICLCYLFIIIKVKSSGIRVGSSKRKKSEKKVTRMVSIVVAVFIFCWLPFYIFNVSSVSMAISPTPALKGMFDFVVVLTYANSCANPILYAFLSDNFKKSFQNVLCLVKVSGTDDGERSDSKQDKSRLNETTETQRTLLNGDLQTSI
T2 sequence (P14416 whole entry): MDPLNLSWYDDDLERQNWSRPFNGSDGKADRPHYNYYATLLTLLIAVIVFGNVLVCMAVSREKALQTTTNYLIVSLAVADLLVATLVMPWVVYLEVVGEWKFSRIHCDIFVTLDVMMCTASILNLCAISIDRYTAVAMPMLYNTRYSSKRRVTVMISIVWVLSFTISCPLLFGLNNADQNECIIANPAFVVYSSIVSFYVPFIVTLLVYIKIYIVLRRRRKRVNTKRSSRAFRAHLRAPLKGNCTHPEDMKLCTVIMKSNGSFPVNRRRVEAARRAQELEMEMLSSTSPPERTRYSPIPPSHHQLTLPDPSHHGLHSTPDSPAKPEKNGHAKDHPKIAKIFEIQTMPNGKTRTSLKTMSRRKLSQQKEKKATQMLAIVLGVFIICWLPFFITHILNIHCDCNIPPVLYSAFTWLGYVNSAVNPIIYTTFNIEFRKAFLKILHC
Experimental: (§1) A cAMP Responsive Element-Luciferase reporter gene assay in HEK-293 cells was used in this assay, wherein said HEK-293 cells were transiently transfected with D2 and/or sst2 cDNA. […] In sst2-monotransfected cells, the IC50 value of cAMP inhibition of Example 1 was 0.04 nM.

sst2 = biological target: T3, sst2 (Homo sapiens, UniProt P30874); experiment: cAMP Responsive Element-Luciferase reporter gene assay, sst2-monotransfected HEK-293 cells; assay type: cell-based; conditions: read-out: IC50 value of cAMP inhibition
T3 construct: expressed in transfected cells; host or cells: HEK-293, transient
T3 sequence (P30874 whole entry): as the sequence (P30874 whole entry) above
Experimental: as §1

With `CCCN1C[C@H](CSCC(=O)NCCCC[C@@H](NC(=O)CSC[C@@H]2C[C@@H]3c4cccc5[nH]cc(c45)C[C@H]3N(CCC)C2)C(=O)N[C@H]2CSSC[C@@H](C(=O)N[C@H](C(N)=O)[C@@H](C)O)NC(=O)[C@H](CC)NC(=O)[C@H](CCCCN)NC(=O)[C@@H](Cc3c[nH]c4ccccc34)NC(=O)[C@H](Cc3ccc(O)cc3)NC2=O)C[C@@H]2c3cccc4[nH]cc(c34)C[C@H]21` [Example 1, Dop2-DLys(Dop2)-cyclo[Cys-Tyr-DTrp-Lys-Abu-Cys]-Thr-NH2] the Ki (hUTII) was 509 nM, the solubility ([1]; 5% DMA in PBS, PBS pH 7, 5% DMA, by HPLC) was 130 µg/mL (≈ 76.7 µM) and the solubility ([1]; 5% DMA in water, Water pH 7, 5% DMA) was over 100000 µg/mL. It also gave a solubility ([1]; 5% PEG400 in PBS, PBS pH 7, 5% PEG400, by HPLC) of 50 µg/mL (≈ 29.5 µM), a solubility ([1]; 5% PEG400 in water, Water pH 7, 5% PEG400) of over 50000 µg/mL and a solubility ([1]; 10% DMA in PBS, PBS pH 7, 10% DMA, by HPLC) of 480 µg/mL (≈ 283 µM). The solubility ([1]; 10% DMA in water, Water pH 7, 10% DMA) was over 100000 µg/mL, the solubility ([1]; 10% PEG400 in PBS, PBS pH 7, 10% PEG400, by HPLC) was 330 µg/mL (≈ 195 µM) and the solubility ([1]; 10% PEG400 in water, Water pH 7, 10% PEG400) was over 50000 µg/mL. The solubility ([1]; 20% DMA in PBS, PBS pH 7, 20% DMA, by HPLC) was 780 µg/mL (≈ 460 µM), the solubility ([1]; 20% DMA in water, Water pH 7, 20% DMA) was over 100000 µg/mL and the solubility ([1]; 20% PEG400 in PBS, PBS pH 7, 20% PEG400, by HPLC) was 750 µg/mL (≈ 443 µM). It also gave a solubility ([1]; 20% PEG400 in water, Water pH 7, 20% PEG400) of over 50000 µg/mL, a solubility ([1]; 30% DMA in PBS, PBS pH 7, 30% DMA, by HPLC) of 4200 µg/mL (≈ 2480 µM) and a solubility ([1]; 30% DMA in water, Water pH 7, 30% DMA) of over 100000 µg/mL. The solubility ([1]; 30% PEG400 in PBS, PBS pH 7, 30% PEG400, by HPLC) was 2980 µg/mL (≈ 1760 µM), the solubility ([1]; 30% PEG400 in water, Water pH 7, 30% PEG400) was over 50000 µg/mL and the solubility ([1]; 40% DMA in PBS, PBS pH 7, 40% DMA) was over 50000 µg/mL. The solubility ([1]; 40% DMA in water, Water pH 7, 40% DMA) was over 100000 µg/mL, the solubility ([1]; 40% PEG400 in PBS, PBS pH 7, 40% PEG400, by HPLC) was 3500 µg/mL (≈ 2070 µM) and the solubility ([1]; 40% PEG400 in water, Water pH 7, 40% PEG400) was over 50000 µg/mL. The solubility ([1]; PBS (0% DMA), PBS pH 7, 0% DMA, by HPLC) was 40 µg/mL (≈ 23.6 µM), the solubility ([1]; water (0% DMA), Water pH 7, 0% DMA, by HPLC) was 860 µg/mL (≈ 508 µM) and the “Solubility in water based versus PBS based solvents” value ([1]; water vs PBS) was “much more soluble in water based solvents than in PBS based solvents”. For the same compound, the IC50 (sst2-D2) was 0.02 nM and the IC50 (sst2) was 0.04 nM.
